According to US20230071765A1, “COMPOSITIONS HAVING THIOREDOXIN ACTIVITY AND RELATED METHODS” (ORPRO THERAPEUTICS, INC., priority 2020, published 2023):

Key:
[1] = lyophilized from 9% sucrose, 1.7 mM EDTA, pH 5.2; 40° C. for six months; cited from earlier work
[2] = tested on: rats; details: rat, in vivo; cited from earlier work
[3] = stability analysis, lyophilized vs solution (DTNB and SEC-HPLC); type: physicochemical; details: lyophilized form, six months at 40° C.
Procedure: Prior work, e.g. WO 2006/090127, teaches compositions for maintenance of thioredoxin in the reduced state. Significant experimentation was required to derive compositions able to keep thioredoxin reduced during storage, and these compositions were complex and required saccharide derivatives and EDTA as excipients. […] ORP-100 and ORP100S proteins were reduced with 100 mM DTT and exchanged over a NAP-5 column into volatile 20 mM ammonium acetate buffer at pH 5.5 to remove residual reductant. Half of the material was frozen at −80° C. then lyophilized while the remainder was kept in solution at either 5° C. or 40° C. for various time points (“PH5.5”). Lyophilized protein was reconstituted back into 20 mM ammonium acetate pH 5.5 immediately prior to evaluation at each time point (“Lyophilized”). Stability was assessed by measuring both free SH groups (DTNB chromogenic assay) and the percent monomers (SEC-HPLC).
For FIG. 3: PH5.5: ORP-100 or ORP100S protein maintained in liquid formulation of 20 mM ammonium acetate, pH 5.5 for 0, 3, 7, 14, 21, 28, 90, or 180 days. Lyophilized: ORP-100 or ORP100S protein stored in the lyophilized form at 5° C. or 40° C. for the 0, 3, 7, 14, 21, 28, 90, or 180 days and assayed following reconstitution in 20 mM ammonium acetate, pH 5.5. Percent free sulfhydryl (reduction state) at 5° C. Second panel: Percent monomer determined by SEC assay at 5° C. Third panel: Percent free sulfhydryl at 40° C. Fourth panel: Percent monomer determined by SEC assay at 40° C.

[4] = tested on: Sprague-Dawley rats; experiment: nebulized aerosol inhalation in rats, inflammatory potential and toxicity; type: in vivo, rat; details: for neutrophil influx (sucrose/EDTA formulation effect): nebulized aerosol; for adverse test article effects (clinical observations, BALF chemistry, cell count, differential, lung cytokines, macroscopic and microscopic findings): target delivered doses 10 mg/kg and 40 mg/kg, aerosol, 1, 4 or 20 hours post exposure
Procedure: This example evaluated and compared the in vivo inflammatory potential among three forms of C35S monothiol Trx (oxidized ORP-100, reduced ORP-100, and reduced ORP100S) formulated in the sucrose/EDTA formulation composition described in PCT WO 2006/090127 and delivered to normal rats as nebulized aerosols at doses of […] and 40 mg/kg.
All three forms of ORP-100 were lyophilized following reduction with DTT and formulated in sucrose buffer (9% sucrose 1.17 mM EDTA pH 5.2). All test articles were evaluated at low (10 mg/kg) and high (40 mg/kg) target delivered doses. The test articles were administered to Charles River Sprague-Dawley rats via inhalation as an aerosol. The aerosol of each of the test articles was produced by a commercially available vibrating mesh nebulizer whose output was attached to a nose-only exposure system.
Target doses were achieved via modulation of the aerosol exposure time while maintaining the aerosol concentration constant. Animals in Low Dose groups received a single dose of test article during a 20 minute exposure to achieve a target delivered dose of 10 mg/kg and deposited dose of 1 mg/kg. Animals in High Dose groups received a single dose of test article during a 75 minute exposure to achieve a target delivered dose of 40 mg/kg and target deposited dose of 4 mg/kg.
Animals in each study group were evaluated for potential toxicity by measuring various parameters including: clinical signs, body weight, clinical pathology (BALF cell counts, LDH and albumin measurements), lung tissue cytokines, lung weights, gross pathology, and microscopic pathology of respiratory target tissues. Additionally, three animals in each Low Dose group had lung tissues collected for immunohistochemistry (Alizèe Pathology, Thurmont, M D). Three (3) animals in each Low Dose group were to be euthanized at 1 hour and 4 hours post exposure for blood and tissue collections. Four (4) animals in each High Dose group were euthanized at 4 and 20 hours post exposure for blood and tissue collections.

[5] = tested on: IL-6 and TNF-alpha in HBE-ALI from healthy and CF donors; experiment: inflammatory cytokine release in HBE-ALI cultures (ELISA); type: cell-based, human; details: for effect on the inflammatory effect of saline: CF HBE-ALI
Procedure: Nasal airway epithelial cells from normal healthy volunteers or CF subjects were cultured in serum-free media at an air-liquid interface with mucociliary differentiation, based on methods adapted from the approach of Schlegel and colleagues (Suprynowicz, F. A., et al., Proc Natl Acad Sci USA, 2012, 109(49): p. 20035-40; Becker, M. N., et al., Am J Respir Crit Care Med, 2004, 169(5): p. 645-53). A number of unique CF and healthy control specimens were collected, expanded, and cryopreserved using this technique. 30 wells were cultured to differentiation at ALI for over 30 days from each of three unique normal or CF donors (homozygous for F508del). Triplicate cultures were exposed at the apical surface to PBS, native Trx, or ORP-100 and both apical and basolateral media samples were collected at 4 and 24 hours after challenge. Apical collection occurred by placing 200 uL of sterile PBS on the apical surface and recovering this after 15 min incubation. ELISA for IL-6 was performed for each sample in duplicate and others were measured using a multiplexed assay. Media was centrifuged to remove debris and stored at −80 C until ELISA analysis.
FIG. 8: Levels of IL-6 or TNFα induced after 24 hr in the basolateral ALI media of primary HBE cultures from nasal epithelia of non-CF (left series of bars) and CF donors (right series of bars). Delivery: apical-surface bolus application for 15 min of 200 uL volumes of control or test article solutions. PBS: 0.9% phosphate-buffered saline negative vehicle control (black bars); ORP100-1000: 1 mM ORP-100 in PBS (solid dark bars); […] uM ORP-100 in PBS (solid light bars); Trx-1000: 1 mM native thioredoxin-1 in PBS (dark hatched bars); Trx-100: 100 uM native thioredoxin-1 in PBS (light hatched bars). All concentrations reflect volumes delivered to the HBE apical surface.

[6] = thiol pKa (acid-dissociation constant); type: physicochemical; details: verified experimentally, data not shown
From the text: The human CF airway surface liquid is approximately 0.8 pH units more acidic than that of unaffected individuals due to the loss of bicarbonate-mediated buffering of proton secretion (Garland A L, Walton W G, Coakley R D, et al., 2013, Molecular basis for pH-dependent mucosal dehydration in cystic fibrosis airways. PNAS 110:15973-8; Shah V S, Meyerholz D K, Tang X X, et al., 2016, Airway acidification initiates host defense abnormalities in cystic fibrosis mice, Science 351:503-7). This has consequences for the clinical use of reducing agents to treat condensed, abnormal mucus. […] Cys thiol pKa values range from pH 8.5 (cysteamine) to pH 9.5 (NAC). In marked contrast to these classical thiols, the structurally-stabilized pKa of the Trx active site Cys32 is two to three logs lower (pH 6.1-6.3), allowing high activity even at acidic CF airway pH (FIG. 2).

B1: thioredoxin: native human thioredoxin-1, 12 kDa redox protein with Cys-Gly-Pro-Cys active site (protein)
chain: VKQIESKTAFQEALDAAGDKLVVVDFSATWCGPCKMIKPFFHSLSEKYSNVIFLEVDVDDCQDVASECEVKCMPTFQFFKKGQKVGEFSGANKEKLEATINELV
- retention of starting activity [1]: almost complete retention of starting activity
- neutrophil influx and inflammatory cytokine release [2]: high levels of neutrophil influx and inflammatory cytokine release

B2: ORP-100: thioredoxin protein having a monothiol active site in which the cysteine at position 35 has been replaced with serine (protein, UniProt P10599 2-105, looked up, variant C35S)
Thioredoxin: VKQIESKTAFQEALDAAGDKLVVVDFSATWCGPSKMIKPFFHSLSEKYSNVIFLEVDVDDCQDVASECEVKCMPTFQFFKKGQKVGEFSGANKEKLEATINELV
- storage stability (free SH, percent monomer) [3]: excellent storage stability
- differences in BALF LDH, albumin, cell counts, differential counts and lung tissue cytokines vs. oxidized ORP-100 control groups ([4]; low and high dose aerosol): unremarkable
- neutrophil influx (sucrose/EDTA formulation effect) [4]: partially able to mitigate the formulation effect
- adverse test article effects (clinical observations, BALF chemistry, cell count, differential, lung cytokines, macroscopic and microscopic findings) [4]: no evidence of adverse test article effects
- effect on the inflammatory effect of saline [5]: abrogated the inflammatory effect of saline
- anti-inflammatory effect vs. PBS vehicle alone ([5]; concentrations above 100 uM, in normal (isotonic) PBS): significant anti-inflammatory effect
- induction of IL-6 and TNF-alpha ([5]; reduced form, in PBS, apical application): non-inflammatory
- pKa compared to native Trx [6]: same pKa as native Trx

B3: oxidized ORP-100: oxidized form of ORP-100, control lacking thioredoxin activity (protein, UniProt P10599 2-105, looked up, variant C35S)
Thioredoxin: VKQIESKTAFQEALDAAGDKLVVVDFSATWCGPSKMIKPFFHSLSEKYSNVIFLEVDVDDCQDVASECEVKCMPTFQFFKKGQKVGEFSGANKEKLEATINELV
modifications: oxidized
- neutrophil influx (sucrose/EDTA formulation effect) [4]: induced
- adverse test article effects (clinical observations, BALF chemistry, cell count, differential, lung cytokines, macroscopic and microscopic findings) [4]: no evidence of adverse test article effects
- effect on the inflammatory effect of saline [5]: not

B4: oxidized thioredoxin: oxidized thioredoxin inactive protein control of Rancourt et al. 2007 (protein, UniProt P10599 2-105, looked up)
Thioredoxin: VKQIESKTAFQEALDAAGDKLVVVDFSATWCGPCKMIKPFFHSLSEKYSNVIFLEVDVDDCQDVASECEVKCMPTFQFFKKGQKVGEFSGANKEKLEATINELV
modifications: oxidized
- BALF cell count and cytokine results [2]: identical BALF cell count and cytokine results as normal saline alone
